Changes are numbered by the printed parent chain. Names and notes keep the numbering of the source.
T1: Cre recombinase monomer with R292E mutation
T1 chain: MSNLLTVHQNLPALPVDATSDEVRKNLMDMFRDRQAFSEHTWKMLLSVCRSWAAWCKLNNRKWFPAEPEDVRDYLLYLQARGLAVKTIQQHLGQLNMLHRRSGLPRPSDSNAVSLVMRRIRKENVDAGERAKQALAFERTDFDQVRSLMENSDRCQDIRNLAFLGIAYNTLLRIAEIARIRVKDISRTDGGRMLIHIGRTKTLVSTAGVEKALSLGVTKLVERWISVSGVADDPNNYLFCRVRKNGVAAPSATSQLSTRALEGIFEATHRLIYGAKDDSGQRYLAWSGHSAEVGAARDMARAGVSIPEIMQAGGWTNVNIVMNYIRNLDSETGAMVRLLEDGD

T2: Cre recombinase monomer with R292S mutation
T2 chain: T1 chain with E292S

T3: Cre recombinase monomer with R292A mutation
T3 chain: T1 chain with E292A

T4: Cre recombinase monomer with K201A mutation
T4 chain: T1 chain with K201A, E292R

T5: Cre recombinase monomer with Q311R mutation
T5 chain: T1 chain with E292R, Q311R

T6: Cre recombinase monomer with Y324W mutation
T6 chain: T1 chain with E292R, Y324W

T7: Cre recombinase monomer with Y324F mutation
T7 chain: T1 chain with E292R, Y324F

T8: Cre recombinase monomer with R292M mutation
T8 chain: T1 chain with E292M

T9: Cre recombinase monomer with R292T mutation
T9 chain: T1 chain with E292T

T10: Cre recombinase monomer with R292N mutation
T10 chain: T1 chain with E292N

T11: Cre recombinase monomer with R292I mutation
T11 chain: T1 chain with E292I

B1: Cre recombinase monomer with E176H mutation (protein)
chain: T1 chain with E176H, E292R
B2: Cre recombinase monomer with E176I mutation (protein)
chain: T1 chain with E176I, E292R
B3: Cre recombinase monomer with E176V mutation (protein)
chain: T1 chain with E176V, E292R

Assays:
[1] = target: T1, Cre recombinase monomer with R292E …
[2] = target: T2, Cre recombinase monomer with R292S …
[3] = target: T3, Cre recombinase monomer with R292A …
[4] = target: T4, Cre recombinase monomer with K201A …
[5] = target: T5, Cre recombinase monomer with Q311R …
[6] = target: T6, Cre recombinase monomer with Y324W …
[7] = target: T7, Cre recombinase monomer with Y324F …
[8] = target: T8, Cre recombinase monomer with R292M …
[9] = target: T9, Cre recombinase monomer with R292T …
[10] = target: T10, Cre recombinase monomer with R292N …
[11] = target: T11, Cre recombinase monomer with R292I …

Protein	Median dimer activity (recombination on loxP) [1] [%]	Median dimer activity (recombination on loxP) [2] [%]	Median dimer activity (recombination on loxP) [3] [%]	Median dimer activity (recombination on loxP) [4] [%]	Median dimer activity (recombination on loxP) [5] [%]	Median dimer activity (recombination on loxP) [6] [%]	Median dimer activity (recombination on loxP) [7] [%]	Median dimer activity (recombination on loxP) [8] [%]	Median dimer activity (recombination on loxP) [9] [%]	Median dimer activity (recombination on loxP) [10] [%]	Median dimer activity (recombination on loxP) [11] [%]
B1	38	68	55	33	51	–	–	–	–	–	–
B2	–	40	–	–	36	50	67	43	–	–	–
B3	–	28	–	–	–	–	–	–	45	31	33
